Experimental data taken from US20050142582.

Test system: USF1 (upstream stimulatory factor) (Ciona intestinalis)
Assay: SPR
Details: binding good, dimer

Chain of USF1 (upstream stimulatory factor) (Ciona intestinalis) (chain, as listed by the source): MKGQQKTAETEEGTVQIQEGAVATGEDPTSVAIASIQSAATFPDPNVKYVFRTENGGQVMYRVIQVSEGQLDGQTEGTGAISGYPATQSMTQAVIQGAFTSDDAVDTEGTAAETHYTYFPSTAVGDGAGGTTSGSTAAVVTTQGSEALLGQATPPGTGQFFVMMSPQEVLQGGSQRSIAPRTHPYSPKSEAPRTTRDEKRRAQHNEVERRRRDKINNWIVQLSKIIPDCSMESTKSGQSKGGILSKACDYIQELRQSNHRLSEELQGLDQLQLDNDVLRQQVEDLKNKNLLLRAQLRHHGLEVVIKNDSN

## GGTATTGAGGGTCGCATCGGCTTCAGGTTGGTCTGGTTGGGTTTGGCTCCTGTGTACGGATGGCTCTAACTCTCCTCT [6H5]
  Kd: 176 nM

## GGTATTGAGGGTCGCATCGGCAAAAAGGATTGCCCAGGTCTGCTGTCTAGCCGGATTCGATGGCTCTAACTCTCCTCT [6H1]
  Kd: 36 nM
